Key:
Test in all cases: native gel or EMSA; single recombinant Kai proteins or two of them together, 16 h at 30 °C in phosphorylation assay buffer (0.2 µg/µl dephosphorylated Strep-KaiC3, 0.1 µg/µl of the others); 4-16% clear native PAGE at 4 °C; Coomassie or anti-His blot
[1] = biological target: KaiA3-His6 (Synechocystis sp. PCC 6803)
[2] = biological target: KaiB3 (recombinant, GST-tag removed) (Synechocystis sp. PCC 6803)
[3] = biological target: Strep-KaiC3 (Synechocystis sp. PCC 6803)
[4] = biological target: the molecule itself

In the case of KaiA3-His6 (natural protein), the stoichiometry N [1] is reported as greater than 2.

Molecule “KaiB3 (recombinant, GST-tag removed) (natural protein)” has a stoichiometry N [2] of 4.

Molecule Strep-KaiC3 (natural protein) has a stoichiometry N [3] of 6.

B1: Synechococcus KaiA (recombinant, GST-tag removed) (natural protein, Synechococcus elongatus PCC 7942, UniProt Q79PF6 1-284, looked up)
chain: MLSQIAICIWVESTAILQDCQRALSADRYQLQVCESGEMLLEYAQTHRDQIDCLILVAANPSFRAVVQQLCFEGVVVPAIVVGDRDSEDPDEPAKEQLYHSAELHLGIHQLEQLPYQVDAALAEFLRLAPVETMADHIMLMGANHDPELSSQQRDLAQRLQERLGYLGVYYKRDPDRFLRNLPAYESQKLHQAMQTSYREIVLSYFSPNSNLNQSIDNFVNMAFFADVPVTKVVEIHMELMDEFAKKLRVEGRSEDILLDYRLTLIDVIAHLCEMYRRSIPRET
notes: KaiA of Synechococcus elongatus PCC 7942; plasmid provided by T. Kondo; Migrates at about 60 kDa on clear native PAGE (dimer); source: E. coli BL21(DE3), purified (glutathione-agarose 4B, PreScission cleavage); not shown: GST, N-terminal, cleaved
B1 was tested, and the “stoichiometry N” value [4] was 2.

— publication PMC11372060, “Two KaiABC systems control circadian oscillations in one cyanobacterium” (Nature Communications, 2024)
